{
  "source": "paper PMC4130184",
  "molecular_target": "T1, PRIN2;CSP41b (Arabidopsis thaliana?;Arabidopsis thaliana?) (UniProt Q9XIK0+Q9SA52)",
  "T1 sequence 1": "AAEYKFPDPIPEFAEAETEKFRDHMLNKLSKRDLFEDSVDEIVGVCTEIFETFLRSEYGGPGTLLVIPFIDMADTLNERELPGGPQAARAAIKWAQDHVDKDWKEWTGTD",
  "T1 sequence 2": "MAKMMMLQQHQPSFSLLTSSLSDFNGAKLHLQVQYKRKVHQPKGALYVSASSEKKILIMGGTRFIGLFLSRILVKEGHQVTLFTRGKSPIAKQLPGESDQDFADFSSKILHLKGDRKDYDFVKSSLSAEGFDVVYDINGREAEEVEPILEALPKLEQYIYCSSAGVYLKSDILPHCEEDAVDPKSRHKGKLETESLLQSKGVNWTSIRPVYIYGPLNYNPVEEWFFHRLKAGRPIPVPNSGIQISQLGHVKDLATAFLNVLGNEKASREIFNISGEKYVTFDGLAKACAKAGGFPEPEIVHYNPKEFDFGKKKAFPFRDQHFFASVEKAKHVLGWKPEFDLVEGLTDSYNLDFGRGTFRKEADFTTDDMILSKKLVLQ",
  "assay": "EMSA",
  "settings": "EMSA: 10 mM Tris-HCl, 25 mM KCl, 1 mM DTT (1x from 10x stock; pH not stated), 1 ug poly(dI-dC) per 25 uL, 2.5% glycerol, 0.05% Triton X-100, 5 mM MgCl2, 10 mM …",
  "data": [
    {"sequence": "ACCCACTACGGATCGTATTCAATCGTATTCATATGATTTGGAAAAAATATTCCTAGAGCAATTCTATTTCTATGTATGTGGATTCGCTTCTAATTTATTTCATCGATTACAAAAAATTTTTTATGAATCTAAACTAAAAGGATCTTATCCATTTTACATTGGTTGACATGGCTATATAAGTCATGTTATACTGTTTC (double strand) [psbA promoter probe (197/198 bp)]", "values": [
      {"measurement": "binding", "result": "binds"}
    ]}
  ]
}
